Reference: paper PMC9234588

Columns and labels:
[1] = target: Fluorescently labelled MukB (MukB-Cy5) (E. coli) (UniProt P22523); test: single-molecule TIRF fluorescence intensity counting; MukB-Cy5 on 'bulbs' of doubly tethered λDNA; 10 nM MukB incubated with DNA at 50 mM NaCl until compacted, then 10 nM MukF, 20 nM MukE and 1 mM ATP-Mg2+ flowed in; number from the intensity against that of a single MukB bound to glass; 107 DNAs
[2] = target: MukB^EQ-Cy5 (EQ MukB mutant, binds but cannot hydrolyse ATP) (E. coli) (UniProt P22523); test: single-molecule TIRF fluorescence intensity counting; MukB^EQ-Cy5 with MukE, truncated monomeric MukF (MonoMukF) and ATP-Mg2+ on doubly tethered λDNA, 150 mM NaCl buffer, ~1 pN of applied force; 164 clusters

Substance	stoichiometry N [1]	stoichiometry N [2]
Fluorescently labelled MukB (MukB-Cy5) (from UniProt P22523 1-1486) (natural protein)	2 to 4	–
MukB^EQ-Cy5 (EQ MukB mutant, binds but cannot hydrolyse ATP) (from UniProt P22523 1-1486) (natural protein)	–	2
